≈ marks a conversion by molar mass, not a printed value.
Tests used:
[1] = test system: CO/N=C(\C(=O)N[C@@H]1C(=O)N2C(C(=O)O)=C(COC(C)=O)CS[C@H]12)c1csc(N)n1; test: (§1) Ratio of Kcat to Ki for Acinetobacter baumannii ADC-33 beta-lactamase
[2] = test system: CO[C@@]1(NC(=O)Cc2cccs2)C(=O)N2C(C(=O)O)=C(COC(N)=O)CS[C@@H]21; test: as §1
[3] = test system: CO/N=C(\C(=O)N[C@@H]1C(=O)N2C(C(=O)[O-])=C(C[n+]3cccc4c3CCC4)CS[C@H]12)c1csc(N)n1; test: (§2) Ratio of Kcat to Km for Acinetobacter baumannii ADC-33 beta-lactamase
[4] = test system: CCN1CCN(C(=O)N[C@@H](C(=O)N[C@@H]2C(=O)N3[C@@H]2SC(C)(C)[C@@H]3C(=O)O)c2ccccc2)C(=O)C1=O; test: as §2
[5] = test system: CC(=O)OCC1=C(C(=O)O)N2C(=O)[C@@H](NC(=O)Cc3cccs3)[C@H]2SC1; test: as §2
[6] = test system: CC1(C)S[C@@H]2[C@H](NC(=O)[C@H](N)c3ccccc3)C(=O)N2[C@H]1C(=O)O; test: as §2
[7] = test system: O=C(Cc1cccs1)N[C@@H]1C(=O)N2C(C(=O)[O-])=C(C[n+]3ccccc3)CS[C@H]12; test: as §2
[8] = test system: CC1(C)S[C@@H]2[C@H](NC(=O)Cc3ccccc3)C(=O)N2[C@H]1C(=O)O; test: as §2
[9] = test system: CO/N=C(\C(=O)N[C@@H]1C(=O)N2C(C(=O)[O-])=C(C[n+]3cccc4c3CCC4)CS[C@H]12)c1csc(N)n1; test: (§3) Activity of Acinetobacter baumannii ADC-33 beta-lactamase
[10] = test system: CCN1CCN(C(=O)N[C@@H](C(=O)N[C@@H]2C(=O)N3[C@@H]2SC(C)(C)[C@@H]3C(=O)O)c2ccccc2)C(=O)C1=O; test: as §3
[11] = test system: CC(=O)OCC1=C(C(=O)O)N2C(=O)[C@@H](NC(=O)Cc3cccs3)[C@H]2SC1; test: as §3
[12] = test system: CC(C)(O/N=C(\C(=O)N[C@@H]1C(=O)N2C(C(=O)[O-])=C(C[n+]3ccccc3)CS[C@H]12)c1csc(N)n1)C(=O)O; test: as §3
[13] = test system: CC1(C)S[C@@H]2[C@H](NC(=O)[C@H](N)c3ccccc3)C(=O)N2[C@H]1C(=O)O; test: as §3
[14] = test system: CO[C@@]1(NC(=O)Cc2cccs2)C(=O)N2C(C(=O)O)=C(COC(N)=O)CS[C@@H]21; test: as §3
[15] = test system: O=C(Cc1cccs1)N[C@@H]1C(=O)N2C(C(=O)[O-])=C(C[n+]3ccccc3)CS[C@H]12; test: as §3
[16] = test system: CC1(C)S[C@@H]2[C@H](NC(=O)Cc3ccccc3)C(=O)N2[C@H]1C(=O)O; test: as §3
Acinetobacter baumannii [17] = test: Antimicrobial activity against Acinetobacter baumannii KI by Etest method in presence of Tazobactam; format: functional
Acinetobacter baumannii [18] = test: Antimicrobial activity against Acinetobacter baumannii AYE expressing VEB-1 gene by Etest method in presence of Tazobactam; format: functional
Escherichia coli [19] = test: Antimicrobial activity against Escherichia coli TOP10 harboring pADC-33 plasmid by Etest method; format: functional
Escherichia coli [20] = test: Antimicrobial activity against Escherichia coli TOP10 harboring pADC-33 plasmid by Etest method in presence of Tazobactam; format: functional
Escherichia coli [21] = test: Antimicrobial activity against Escherichia coli TOP10 harboring pADC-11 plasmid by Etest method in presence of Tazobactam; format: functional
Escherichia coli [22] = test: Antimicrobial activity against Escherichia coli TOP10 harboring pADC-11 plasmid carrying entire blaAmpC gene with alanine residue insertion at 215 position by Etest method; format: functional
Acinetobacter baumannii [23] = test: Antimicrobial activity against Acinetobacter baumannii CIP70.10 by Etest method in presence of Tazobactam; format: functional
Acinetobacter baumannii [24] = test: Antimicrobial activity against Acinetobacter baumannii CIP70.10 by Etest method; format: functional
Escherichia coli [25] = test: Antimicrobial activity against Escherichia coli TOP10 harboring pTOPO plasmid by Etest method in presence of Tazobactam; format: functional
Escherichia coli [26] = test: Antimicrobial activity against Escherichia coli TOP10 harboring pADC-33 plasmid with entire blaAmpC gene by Etest method; format: functional
Escherichia coli [27] = test: Antimicrobial activity against Escherichia coli TOP10 harboring pADC-50 plasmid by Etest method; format: functional
Escherichia coli [28] = test: Antimicrobial activity against Escherichia coli TOP10 harboring pADC-11 plasmid with entire blaAmpC gene by Etest method; format: functional
Escherichia coli [29] = test: Antimicrobial activity against Escherichia coli TOP10 harboring pADC-33 plasmid carrying entire blaAmpC gene by Etest method in presence of Tazobactam; format: functional
Acinetobacter baumannii [30] = test: Antimicrobial activity against Acinetobacter baumannii AYE expressing VEB-1 gene by Etest method; format: functional
Escherichia coli [31] = test: Antimicrobial activity against Escherichia coli TOP10 harboring pADC-33 plasmid carrying entire blaAmpC gene with alanine residue deletion at 215 position by Etest method in presence of Tazobactam; format: functional
Escherichia coli [32] = test: Antimicrobial activity against Escherichia coli TOP10 harboring pADC-11 plasmid carrying entire blaAmpC gene by Etest method in presence of Tazobactam; format: functional
Escherichia coli [33] = test: Antimicrobial activity against Escherichia coli TOP10 harboring pADC-11 plasmid carrying entire blaAmpC gene with alanine residue insertion at 215 position by Etest method in presence of Tazobactam; format: functional
Escherichia coli [34] = test: Antimicrobial activity against Escherichia coli TOP10 harboring pADC-33 plasmid carrying entire blaAmpC gene with alanine residue deletion at 215 position and R210P substitution by Etest method in presence of Tazobactam; format: functional
Escherichia coli [35] = test: Antimicrobial activity against Escherichia coli TOP10 harboring pADC-33 plasmid with entire blaAmpC gene with alanine residue deletion at 215 position by Etest method; format: functional
Acinetobacter baumannii [36] = test: Antimicrobial activity against Acinetobacter baumannii KI by Etest method; format: functional
Escherichia coli [37] = test: Antimicrobial activity against Escherichia coli TOP10 harboring pTOPO plasmid by Etest method; format: functional
Escherichia coli [38] = test: Antimicrobial activity against Escherichia coli TOP10 harboring pADC-33 plasmid carrying entire blaAmpC gene with alanine residue deletion at 215 position and R210P substitution by Etest method; format: functional
Acinetobacter baumannii [39] = test: Ratio of Kcat to Km for Acinetobacter baumannii ADC-33 beta-lactamase to Kcat to Km for Acinetobacter baumannii ADC-11 beta-lactamase
Escherichia coli [40] = test: Antimicrobial activity against Escherichia coli TOP10 harboring pADC-11 plasmid carrying entire blaAmpC gene with alanine residue deletion at 215 position and R210P substitution by Etest method in presence of Tazobactam; format: functional
Escherichia coli [41] = test: Antimicrobial activity against Escherichia coli TOP10 harboring pADC-11 plasmid by Etest method; format: functional
Escherichia coli [42] = test: Antimicrobial activity against Escherichia coli TOP10 harboring pADC-11 plasmid carrying entire blaAmpC gene with alanine residue insertion at 215 position and R210P substitution by Etest method; format: functional
Escherichia coli [43] = test: Antimicrobial activity against Escherichia coli TOP10 harboring pADC-50 plasmid by Etest method in presence of Tazobactam; format: functional
[44] = test system: CO[C@@]1(NC(=O)Cc2cccs2)C(=O)N2C(C(=O)O)=C(COC(N)=O)CS[C@@H]21; test: Ratio of Kcat to Ki for Acinetobacter baumannii ADC-11 beta-lactamase
[45] = test system: CO/N=C(\C(=O)N[C@@H]1C(=O)N2C(C(=O)[O-])=C(C[n+]3cccc4c3CCC4)CS[C@H]12)c1csc(N)n1; test: (§4) Activity of Acinetobacter baumannii ADC-11 beta-lactamase
[46] = test system: CCN1CCN(C(=O)N[C@@H](C(=O)N[C@@H]2C(=O)N3[C@@H]2SC(C)(C)[C@@H]3C(=O)O)c2ccccc2)C(=O)C1=O; test: as §4
[47] = test system: CO/N=C(\C(=O)N[C@@H]1C(=O)N2C(C(=O)O)=C(COC(C)=O)CS[C@H]12)c1csc(N)n1; test: as §4
[48] = test system: CC(=O)OCC1=C(C(=O)O)N2C(=O)[C@@H](NC(=O)Cc3cccs3)[C@H]2SC1; test: as §4
[49] = test system: CC(C)(O/N=C(\C(=O)N[C@@H]1C(=O)N2C(C(=O)[O-])=C(C[n+]3ccccc3)CS[C@H]12)c1csc(N)n1)C(=O)O; test: as §4
[50] = test system: CC1(C)S[C@@H]2[C@H](NC(=O)[C@H](N)c3ccccc3)C(=O)N2[C@H]1C(=O)O; test: as §4
[51] = test system: O=C(Cc1cccs1)N[C@@H]1C(=O)N2C(C(=O)[O-])=C(C[n+]3ccccc3)CS[C@H]12; test: as §4
[52] = test system: CC1(C)S[C@@H]2[C@H](NC(=O)Cc3ccccc3)C(=O)N2[C@H]1C(=O)O; test: as §4
[53] = test system: CO/N=C(\C(=O)N[C@@H]1C(=O)N2C(C(=O)[O-])=C(C[n+]3cccc4c3CCC4)CS[C@H]12)c1csc(N)n1; test: (§5) Ratio of Kcat to Km for Acinetobacter baumannii ADC-11 beta-lactamase
[54] = test system: CCN1CCN(C(=O)N[C@@H](C(=O)N[C@@H]2C(=O)N3[C@@H]2SC(C)(C)[C@@H]3C(=O)O)c2ccccc2)C(=O)C1=O; test: as §5
[55] = test system: CC(C)(O/N=C(\C(=O)N[C@@H]1C(=O)N2C(C(=O)[O-])=C(C[n+]3ccccc3)CS[C@H]12)c1csc(N)n1)C(=O)O; test: as §5
[56] = test system: CC1(C)S[C@@H]2[C@H](NC(=O)[C@H](N)c3ccccc3)C(=O)N2[C@H]1C(=O)O; test: as §5
[57] = test system: CC1(C)S[C@@H]2[C@H](NC(=O)Cc3ccccc3)C(=O)N2[C@H]1C(=O)O; test: as §5

Molecule: Beta-lactamase ADC-33 (Acinetobacter baumannii) (from UniProt B2ZTR6)
- kcat/Km [1]: 2e+06 M⁻¹ s⁻¹
- kcat/Km [2]: 3e+06 M⁻¹ s⁻¹
- kcat/Km [3]: 50000 M⁻¹ s⁻¹
- kcat/Km [4]: 250000 M⁻¹ s⁻¹
- kcat/Km [5]: 1e+06 M⁻¹ s⁻¹
- kcat/Km [6]: 500000 M⁻¹ s⁻¹
- kcat/Km [7]: 2e+06 M⁻¹ s⁻¹
- kcat/Km [8]: 5e+06 M⁻¹ s⁻¹
- Km [9]: 700 µM
- kcat [9]: 35 s⁻¹
- Km [10]: 16 µM
- kcat [10]: 4 s⁻¹
- Km [11]: 120 µM
- kcat [11]: 140 s⁻¹
- Km [12]: 30 µM
- kcat [12]: 4 s⁻¹
- Km [13]: 9 µM
- kcat [13]: 4 s⁻¹
- kcat [14]: 0.3 s⁻¹
- Km [15]: 100 µM
- kcat [15]: 220 s⁻¹
- Km [16]: 3 µM

Molecule: CCN1CCN(C(=O)N[C@@H](C(=O)N[C@@H]2C(=O)N3[C@@H]2SC(C)(C)[C@@H]3C(=O)O)c2ccccc2)C(=O)C1=O [PIPERACILLIN]
- MIC (Acinetobacter baumannii [17]): 128 µg/mL
- MIC (Acinetobacter baumannii [18]): 128 µg/mL
- MIC (Escherichia coli [19]): 32 µg/mL (≈ 61.8 µM)
- MIC (Escherichia coli [20]): 32 µg/mL
- MIC (Escherichia coli [21]): 8 µg/mL
- MIC (Escherichia coli [22]): > 256 µg/mL
- MIC (Acinetobacter baumannii [23]): 4 µg/mL
- MIC (Acinetobacter baumannii [24]): 16 µg/mL (≈ 30.9 µM)
- MIC (Escherichia coli [25]): 1 µg/mL
- MIC (Escherichia coli [26]): > 256 µg/mL
- MIC (Escherichia coli [27]): 16 µg/mL (≈ 30.9 µM)
- MIC (Escherichia coli [28]): > 256 µg/mL
- MIC (Escherichia coli [29]): > 256 µg/mL
- MIC (Acinetobacter baumannii [30]): > 256 µg/mL
- MIC (Escherichia coli [31]): 256 µg/mL
- MIC (Escherichia coli [32]): 128 µg/mL
- MIC (Escherichia coli [33]): 256 µg/mL
- MIC (Escherichia coli [34]): 128 µg/mL
- MIC (Escherichia coli [35]): > 256 µg/mL
- MIC (Acinetobacter baumannii [36]): > 256 µg/mL
- MIC (Escherichia coli [37]): 1 µg/mL (≈ 1.93 µM)
- MIC (Escherichia coli [38]): > 256 µg/mL
- kcat/Km (Acinetobacter baumannii [39]): 1.2e+06 M⁻¹ s⁻¹
- MIC (Escherichia coli [40]): 256 µg/mL
- MIC (Escherichia coli [41]): 8 µg/mL (≈ 15.5 µM)
- MIC (Escherichia coli [42]): > 256 µg/mL
- MIC (Escherichia coli [43]): 16 µg/mL

Molecule: ADC-11 (Acinetobacter baumannii) (from UniProt D6NSM8)
- kcat/Km [44]: 3e+06 M⁻¹ s⁻¹
- Km [45]: 1700 µM
- kcat [45]: 8 s⁻¹
- kcat [46]: 5 s⁻¹
- kcat [47]: 0.2 s⁻¹
- Km [48]: 210 µM
- kcat [48]: 550 s⁻¹
- Km [49]: 10 µM
- kcat [49]: 0.01 s⁻¹
- Km [50]: 7 µM
- kcat [50]: 5 s⁻¹
- kcat [51]: 600 s⁻¹
- Km [52]: 12 µM
- kcat [52]: 45 s⁻¹
- kcat/Km [53]: 4000 M⁻¹ s⁻¹
- kcat/Km [54]: 200000 M⁻¹ s⁻¹
- kcat/Km [55]: 1000 M⁻¹ s⁻¹
- kcat/Km [56]: 1e+06 M⁻¹ s⁻¹
- kcat/Km [57]: 4e+06 M⁻¹ s⁻¹

Reference: ChEMBL document CHEMBL1649315, “Extended-spectrum cephalosporinase in Acinetobacter baumannii” (Antimicrob Agents Chemother, 2010)
